The source of these data is the Human Domainome abundance scans (Beltran et al. 2025).

B1: Androgen receptor, residues 557 to 632; numbered along this chain, P10275 (parent)
chain: QKTCLICGDEASGCHYGALTCGSCKVFFKRAAEGKQKYLCASRNDCTIDKFRRKNCPSCRLRKCYEAGMTLGARKL

± gives the uncertainty stated by the source.

In the series the parent is B1. As to the kind of experiment: abundance fitness (aPCA) (normalised: wild type 0, dead -1); higher = more abundant; growth selection in yeast, the domain comes from the species named. To be noted: Homo sapiens.
For the variant QKTCLICGDEASGCHYGALTCGSCKVFFKRATEGKQKYLCASRNDCTIDKFRRKNCPSCRLRKCYEAGMTLGARKL [A32T], the abundance fitness stood at 0.114 ± 0.05.

As for QKTCLICGDEASGCHYGALTCGSCKVFFKRAEEGKQKYLCASRNDCTIDKFRRKNCPSCRLRKCYEAGMTLGARKL [A32E], the abundance fitness was 0.036 ± 0.089.

As for QKTCLICGDEASGCHYGALTCGSCKVFFKRACEGKQKYLCASRNDCTIDKFRRKNCPSCRLRKCYEAGMTLGARKL [A32C], the abundance fitness is -0.023 ± 0.054.

For the variant QKTCLICGDEASGCHYGALTCGSCKVFFKRADEGKQKYLCASRNDCTIDKFRRKNCPSCRLRKCYEAGMTLGARKL [A32D], the abundance fitness was 0.007 ± 0.097.

As for QKTCLICGDEASGCHYGALTCGSCKVFFKRASEGKQKYLCASRNDCTIDKFRRKNCPSCRLRKCYEAGMTLGARKL [A32S], the abundance fitness is -0.052 ± 0.045.

Turning to QKTCLICGDEASGCHYGALTCGSCKVFFKRALEGKQKYLCASRNDCTIDKFRRKNCPSCRLRKCYEAGMTLGARKL [A32L], the abundance fitness is -0.167 ± 0.046.

Regarding QKTCLICGDEASGCHYGALTCGSCKVFFKRAMEGKQKYLCASRNDCTIDKFRRKNCPSCRLRKCYEAGMTLGARKL [A32M], the abundance fitness was -0.019 ± 0.068.

As to QKTCLICGDEASGCHYGALTCGSCKVFFKRAFEGKQKYLCASRNDCTIDKFRRKNCPSCRLRKCYEAGMTLGARKL [A32F], the abundance fitness is -0.197 ± 0.065.

For the variant QKTCLICGDEASGCHYGALTCGSCKVFFKRAQEGKQKYLCASRNDCTIDKFRRKNCPSCRLRKCYEAGMTLGARKL [A32Q], the abundance fitness was 0.034 ± 0.058.

Turning to QKTCLICGDEASGCHYGALTCGSCKVFFKRAREGKQKYLCASRNDCTIDKFRRKNCPSCRLRKCYEAGMTLGARKL [A32R], the abundance fitness is -0.155 ± 0.043.

On to QKTCLICGDEASGCHYGALTCGSCKVFFKRAYEGKQKYLCASRNDCTIDKFRRKNCPSCRLRKCYEAGMTLGARKL [A32Y], for which the abundance fitness is -0.145 ± 0.065.

For the variant QKTCLICGDEASGCHYGALTCGSCKVFFKRAVEGKQKYLCASRNDCTIDKFRRKNCPSCRLRKCYEAGMTLGARKL [A32V], the abundance fitness is -0.016 ± 0.05.

As for QKTCLICGDEASGCHYGALTCGSCKVFFKRAHEGKQKYLCASRNDCTIDKFRRKNCPSCRLRKCYEAGMTLGARKL [A32H], the abundance fitness was -0.233 ± 0.093.

As for QKTCLICGDEASGCHYGALTCGSCKVFFKRAWEGKQKYLCASRNDCTIDKFRRKNCPSCRLRKCYEAGMTLGARKL [A32W], the abundance fitness is -0.088 ± 0.061.

On to QKTCLICGDEASGCHYGALTCGSCKVFFKRAPEGKQKYLCASRNDCTIDKFRRKNCPSCRLRKCYEAGMTLGARKL [A32P], for which the abundance fitness is -0.591 ± 0.13.

Consider QKTCLICGDEASGCHYGALTCGSCKVFFKRAIEGKQKYLCASRNDCTIDKFRRKNCPSCRLRKCYEAGMTLGARKL [A32I], for which the abundance fitness was -0.011 ± 0.061.

Consider QKTCLICGDEASGCHYGALTCGSCKVFFKRAGEGKQKYLCASRNDCTIDKFRRKNCPSCRLRKCYEAGMTLGARKL [A32G], for which the abundance fitness was -0.001 ± 0.048.

QKTCLICGDEASGCHYGALTCGSCKVFFKRAAEGKKKYLCASRNDCTIDKFRRKNCPSCRLRKCYEAGMTLGARKL [Q36K]: the abundance fitness was 0.013 ± 0.08.

In the case of QKTCLICGDEASGCHYGALTCGSCKVFFKRAAEGKVKYLCASRNDCTIDKFRRKNCPSCRLRKCYEAGMTLGARKL [Q36V], the abundance fitness came out at 0.065 ± 0.043.

Regarding QKTCLICGDEASGCHYGALTCGSCKVFFKRAAEGKWKYLCASRNDCTIDKFRRKNCPSCRLRKCYEAGMTLGARKL [Q36W], the abundance fitness is -0.251 ± 0.065.

In the case of QKTCLICGDEASGCHYGALTCGSCKVFFKRAAEGKTKYLCASRNDCTIDKFRRKNCPSCRLRKCYEAGMTLGARKL [Q36T], the abundance fitness was -0.173 ± 0.064.

As for QKTCLICGDEASGCHYGALTCGSCKVFFKRAAEGKSKYLCASRNDCTIDKFRRKNCPSCRLRKCYEAGMTLGARKL [Q36S], the abundance fitness is -0.094 ± 0.041.

For QKTCLICGDEASGCHYGALTCGSCKVFFKRAAEGKNKYLCASRNDCTIDKFRRKNCPSCRLRKCYEAGMTLGARKL [Q36N], the abundance fitness was -0.134 ± 0.075.

Regarding QKTCLICGDEASGCHYGALTCGSCKVFFKRAAEGKIKYLCASRNDCTIDKFRRKNCPSCRLRKCYEAGMTLGARKL [Q36I], the abundance fitness was -0.197 ± 0.067.

As for QKTCLICGDEASGCHYGALTCGSCKVFFKRAAEGKAKYLCASRNDCTIDKFRRKNCPSCRLRKCYEAGMTLGARKL [Q36A], the abundance fitness was -0.019 ± 0.047.

QKTCLICGDEASGCHYGALTCGSCKVFFKRAAEGKPKYLCASRNDCTIDKFRRKNCPSCRLRKCYEAGMTLGARKL [Q36P]: the abundance fitness is -0.006 ± 0.052.

On to QKTCLICGDEASGCHYGALTCGSCKVFFKRAAEGKRKYLCASRNDCTIDKFRRKNCPSCRLRKCYEAGMTLGARKL [Q36R], for which the abundance fitness is -0.144 ± 0.051.

Take QKTCLICGDEASGCHYGALTCGSCKVFFKRAAEGKEKYLCASRNDCTIDKFRRKNCPSCRLRKCYEAGMTLGARKL [Q36E]: the abundance fitness turned out to be 0.031 ± 0.063.

For QKTCLICGDEASGCHYGALTCGSCKVFFKRAAEGKMKYLCASRNDCTIDKFRRKNCPSCRLRKCYEAGMTLGARKL [Q36M], the abundance fitness was -0.084 ± 0.064.

As for QKTCLICGDEASGCHYGALTCGSCKVFFKRAAEGKDKYLCASRNDCTIDKFRRKNCPSCRLRKCYEAGMTLGARKL [Q36D], the abundance fitness came to 0.048 ± 0.074.

For QKTCLICGDEASGCHYGALTCGSCKVFFKRAAEGKCKYLCASRNDCTIDKFRRKNCPSCRLRKCYEAGMTLGARKL [Q36C], the abundance fitness was -0.2 ± 0.091.

As for QKTCLICGDEASGCHYGALTCGSCKVFFKRAAEGKLKYLCASRNDCTIDKFRRKNCPSCRLRKCYEAGMTLGARKL [Q36L], the abundance fitness was -0.075 ± 0.036.

Turning to QKTCLICGDEASGCHYGALTCGSCKVFFKRAAEGKGKYLCASRNDCTIDKFRRKNCPSCRLRKCYEAGMTLGARKL [Q36G], the abundance fitness worked out at 0.011 ± 0.056.

Take QKTCLICGDEASGCHYGALTCGSCKVFFKRAAEGKHKYLCASRNDCTIDKFRRKNCPSCRLRKCYEAGMTLGARKL [Q36H]: the abundance fitness was -0.01 ± 0.065.

Consider QKTCLICGDEASGCHYGALTCGSCKVFFKRAAEGKFKYLCASRNDCTIDKFRRKNCPSCRLRKCYEAGMTLGARKL [Q36F], for which the abundance fitness was -0.156 ± 0.066.

In the case of QKTCLICGDEASGCHYGALTCGSCKVFFKRAAEDKQKYLCASRNDCTIDKFRRKNCPSCRLRKCYEAGMTLGARKL [G34D], the abundance fitness is -0.372 ± 0.49.
